These results are taken from PMC2173848 (The Journal of Cell Biology, 2002).

For the assay, the target named is T1, GST-Sec34p (S. cerevisiae, UniProt P40094 1-801).
T1 sequence (looked up): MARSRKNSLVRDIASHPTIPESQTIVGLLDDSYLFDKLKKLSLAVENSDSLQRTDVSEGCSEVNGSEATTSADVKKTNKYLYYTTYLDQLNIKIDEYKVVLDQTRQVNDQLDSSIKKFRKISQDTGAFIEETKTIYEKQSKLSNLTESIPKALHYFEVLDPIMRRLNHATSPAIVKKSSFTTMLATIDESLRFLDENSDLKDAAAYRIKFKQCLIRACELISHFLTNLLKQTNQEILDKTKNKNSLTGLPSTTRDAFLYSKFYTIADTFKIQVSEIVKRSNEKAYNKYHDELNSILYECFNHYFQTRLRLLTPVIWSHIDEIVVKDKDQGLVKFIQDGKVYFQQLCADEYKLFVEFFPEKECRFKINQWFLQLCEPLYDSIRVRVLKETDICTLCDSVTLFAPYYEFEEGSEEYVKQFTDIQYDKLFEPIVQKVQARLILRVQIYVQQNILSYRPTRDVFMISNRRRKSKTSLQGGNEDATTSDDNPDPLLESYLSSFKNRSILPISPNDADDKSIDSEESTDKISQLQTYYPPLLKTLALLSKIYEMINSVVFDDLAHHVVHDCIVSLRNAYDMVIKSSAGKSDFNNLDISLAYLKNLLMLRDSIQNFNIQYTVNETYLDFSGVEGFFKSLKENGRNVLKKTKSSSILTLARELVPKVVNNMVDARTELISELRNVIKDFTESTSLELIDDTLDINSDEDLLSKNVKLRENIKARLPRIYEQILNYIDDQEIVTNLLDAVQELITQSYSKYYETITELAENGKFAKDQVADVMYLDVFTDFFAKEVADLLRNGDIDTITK
In words: pull-down.

B1: Sec35p (natural protein, S. cerevisiae (endogenous in yeast), UniProt P53271 1-262, looked up)
chain: MDFLNDDELDLDLPVTAEISKELFATEIEKYRESETNGTDVDNFDVDRFLVQKNFHYLPLDSLIRDLSGLSQKMVQTLLEQIRSNYDDYLTFSNTYTDEENETLINLEKTQSDLQKFMTQLDHLIKDDISNTQEIIKDVLEYLKKLDEIYGSLRNHSQLTEALSLGKRLSKSLHEMCGIEPLEEEICSGLIEQLYKLITASRRILESCADSNSPYIHHLRNDYQDLLQEFQISLKILTEKCLENPSSLQNLSLTLVSIIKTA
Take B1: the “percent recovered on the beads” value was around 3%.
